# Target: rat skeletal muscle sodium channel rNaV1.4 (UniProt P15390)
# Assay: washing-out time-course analysis (electrophysiology)
# Details: read off a plot
# UniProt P15390, sequence (P15390 whole entry): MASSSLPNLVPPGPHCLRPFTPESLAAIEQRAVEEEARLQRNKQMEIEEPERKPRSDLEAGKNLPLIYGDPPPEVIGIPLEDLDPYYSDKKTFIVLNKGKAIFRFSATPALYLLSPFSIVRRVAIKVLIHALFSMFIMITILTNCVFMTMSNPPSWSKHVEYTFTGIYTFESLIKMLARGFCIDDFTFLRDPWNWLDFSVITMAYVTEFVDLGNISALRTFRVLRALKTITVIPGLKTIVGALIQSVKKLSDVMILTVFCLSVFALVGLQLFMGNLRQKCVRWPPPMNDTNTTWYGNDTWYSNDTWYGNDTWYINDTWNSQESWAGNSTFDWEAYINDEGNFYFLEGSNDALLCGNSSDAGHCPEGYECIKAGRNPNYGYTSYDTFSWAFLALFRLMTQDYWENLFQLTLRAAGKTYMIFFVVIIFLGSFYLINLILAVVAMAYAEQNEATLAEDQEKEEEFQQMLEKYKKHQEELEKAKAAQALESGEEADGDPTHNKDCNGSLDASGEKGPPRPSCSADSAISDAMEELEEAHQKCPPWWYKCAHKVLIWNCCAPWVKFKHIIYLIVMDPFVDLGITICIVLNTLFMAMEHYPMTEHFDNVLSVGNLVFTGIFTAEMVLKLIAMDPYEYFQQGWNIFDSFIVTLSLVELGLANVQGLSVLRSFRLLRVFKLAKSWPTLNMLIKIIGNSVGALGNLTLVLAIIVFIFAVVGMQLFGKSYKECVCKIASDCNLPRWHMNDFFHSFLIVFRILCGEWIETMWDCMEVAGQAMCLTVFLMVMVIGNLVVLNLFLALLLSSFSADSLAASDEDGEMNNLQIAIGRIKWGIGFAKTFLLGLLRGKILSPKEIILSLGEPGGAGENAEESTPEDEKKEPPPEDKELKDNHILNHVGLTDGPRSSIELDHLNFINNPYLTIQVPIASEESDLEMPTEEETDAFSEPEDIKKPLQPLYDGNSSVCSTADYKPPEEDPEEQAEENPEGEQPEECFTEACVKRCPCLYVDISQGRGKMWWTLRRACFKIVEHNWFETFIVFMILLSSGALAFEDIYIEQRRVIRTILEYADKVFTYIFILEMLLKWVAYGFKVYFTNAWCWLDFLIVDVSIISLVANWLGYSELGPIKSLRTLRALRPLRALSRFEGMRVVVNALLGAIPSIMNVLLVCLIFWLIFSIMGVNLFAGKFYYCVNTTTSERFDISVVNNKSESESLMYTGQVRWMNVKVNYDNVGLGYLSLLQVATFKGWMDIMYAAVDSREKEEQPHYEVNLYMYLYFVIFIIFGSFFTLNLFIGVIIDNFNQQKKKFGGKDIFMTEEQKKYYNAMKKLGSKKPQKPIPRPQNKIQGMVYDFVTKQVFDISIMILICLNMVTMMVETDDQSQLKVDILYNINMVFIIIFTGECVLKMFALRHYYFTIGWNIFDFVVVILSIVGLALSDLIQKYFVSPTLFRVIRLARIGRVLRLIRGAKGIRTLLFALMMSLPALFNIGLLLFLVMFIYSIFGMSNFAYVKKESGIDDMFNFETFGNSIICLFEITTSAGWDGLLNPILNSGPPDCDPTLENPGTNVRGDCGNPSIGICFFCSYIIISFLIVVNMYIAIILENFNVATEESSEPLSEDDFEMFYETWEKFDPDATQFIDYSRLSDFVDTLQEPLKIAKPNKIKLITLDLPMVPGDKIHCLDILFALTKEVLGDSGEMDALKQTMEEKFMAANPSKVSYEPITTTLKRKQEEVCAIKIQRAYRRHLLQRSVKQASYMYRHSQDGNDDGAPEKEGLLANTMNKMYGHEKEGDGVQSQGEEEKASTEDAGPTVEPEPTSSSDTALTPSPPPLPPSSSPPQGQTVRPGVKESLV
row,Substance,other: τoff [s]
1,BmK-M9 D3G,1900
2,BmK-M9 D28G,1800
3,BmK-M9 D53G,1700
4,BmK-M9 E10G,1700
5,BmK-M9 E20G,1600
6,BmK-M9 E32G,1800
7,BmK-M9 H15G,1500
8,BmK-M9 H64G,1800
9,BmK-M9 K8G,1700
10,BmK-M9 K24G,1800
11,BmK-M9 K50G,1600
12,BmK-M9 K62G,8.5
13,BmK-M9 R2G,1300
14,BmK-M9 R41G,1700
15,BmK-M9 R54G,1800
16,BmK-M9 R58G,2000
17,BmK-M9 Y42G,17
